The series in a line: soluble on expression in E. coli; label from the status in PepcDB or PDB records.
“GGSHMELPGSSMKPSGEDQAALAAGPWEECFQAAVQLALRAGQIIRKALTEEKRVSTKTSAADLVTETDHLVEDLIISELRERFPSHRFIAEEAAASGAKCVLTHSPTWIIDPIDGTCNFVHRFPTVAVSIGFAVRQELEFGVIYHCTEERLYTGRRGRGAFCNGQRLRVSGETDLSKALVLTEIGPKRDPATLKLFLSNMERLLHAKAHGVRVIGSSTLALCHLASGAADAYYQFGLHCWDLAAATVIIREAGGIVIDTSGGPLDLMACRVVAASTREMAMLIAQALQTINYGRDDEK”: the “soluble on expression in E. coli” value is on record as “soluble”.

“GHHHHHHAIAENLYFQSHGHGGYDSDFSDDEHCGESSKRKKRTVEDDLLLQKPFQKEKHGKVAHKQVAAELLDREEARNRRFHLIAMDAYQRHRKFVNDYILYYGGKKEDFKRLGENDKTDLDVIRENHRFLWNEEDEMDMTWEKRLAKKYYDKLFKEYCIADLSKYKENKFGFRWRVEKEVISGKGQFFCGNKYCDKKEGLKSWEVNFGYIEHGEKRNALVKLRLCQECSIKLNFHHRRKEIKSKKRKDKTKKDCEESSHKKSRLSSAEEASKKKDKGHSSSKKSEDSLLRNSDEEESASESELWKGPLPETDEKSQEEEFDEYFQDLFL”: the “soluble on expression in E. coli” value is “soluble”.

“GHMGITRDVQVPDVRGQSSADAIATLQNRGFKIRTLQKPDSTIPPDHVIGTDPAANTSVSAGDEITVNVSTGPEQREIPDVSTLTYAEAVKKLTAAGFGRFKQANSPSTPELVGKVIGTNPPANQTSAITNVVIIIVGSGPATKDIPDVAGQTVDVAQKNLNVYGFTKFSQASVDSPRPAGEVTGTNPPAGTTVPVDSVIELQVSKGNQFVMPDLSGMFWVDAEPRLRALGWTGMLDKGADVDAGGSQHNRVVYQNPPAGTGVNRDGIITLRFGQ”: the “soluble on expression in E. coli” value was “soluble”.

Regarding “GHMKSEKEKMLAGHLYNPADLELVKERERARRLVRLYNETLETEYDKRTGLLKELFGSTGERLFIEPNFRCDYGYNIHVGENFFMNFDGVILDVCEVRIGDHCFIGPGVHIYTATHPLDPHERNSGLEYGKPVVIGHNVWIGGRAVINPGVTIGDNAVIASGAVVTKDVPANAVVGGNPAKVIKWLK”, the “soluble on expression in E. coli” value is “soluble”.

As to “GHMNVKLKVFHAGSLTEPMKAFKRAFEEKHPNVEVQTEAAGSAATIRKVTELGRKADVIATADYTLIQKMMYPEFANWTIMFAKNQIVLAYRNDSRYADEINSQNWYEILKRPDVRFGFSNPNDDPCGYRSLMAIQLAELYYNDPTIFDELVAKNSNLRFSEDNGSYVLRMPSSERIEINKSKIMIRSMEMELIHLVESGELDYFFIYKSVAKQHGFNFVELPVEIDLSSPDYAELYSKVKVVLANGKEVTGKPIVYGITIPKNAENRELAVEFVKLVISEEGQEILRELGQEPLVPPRADTAVPSLKAMVEVS”, the “soluble on expression in E. coli” value is recorded as “soluble”.

Regarding “GHMPAYVFSKESFLKFLEGHLEDDVVVVVSSDVTDFCKKLSESMVGEKEYCFAEFAFPADIFDADEDEIDEMMKYAIVFVEKEKLSEAGRNAIR”, the “soluble on expression in E. coli” value is recorded as “soluble”.

As to “GHMPTKQQLLYEGKAKKIYATDEPDVLWVEYKDSATAFNGEKKATIAGKGRLNNEISSLLFLKLREAGIANHFIEKLSPTEQLVRRVTIIPLEVVVRNVVAGSLAKRIGLEEGTPLEAPLVEFYYKNDDLGDPLLLEDHIFILKLASREEVAALKQAALAVNDVLRLHFAERNVRLIDFKLEFGRTADGAILLADEISPDTCRLWDAKTNEKLDKDVFRRDLGSLTDAYEVILQRLGGESACTK”, the “soluble on expression in E. coli” value is “soluble”.

With “GHMRRELAIEFSRVTESAALAGYKWLGRGDKNTADGAAVNAMRIMLNQVNIDGTIVIGEGEIDEAPMLYIGEKVGTGRGDAVDIAVDPIEGTRMTAMGQANALAVLAVGDKGCFLNAPDMYMEKLIVGPGAKGTIDLNLPLADNLRNVAAALGKPLSELTVTILAKPRHDAVIAEMQQLGVRVFAIPDGDVAASILTCMPDSEVDVLYGIGGAPEGVVSAAVIRALDGDMNGRLLARHDVKGDNEENRRIGEQELARCKAMGIEAGKVLRLGDMARSDNVIFSATGITKGDLLEGISRKGNIATTETLLIRGKSRTIRRIQSIHYLDRKDPEMQVHIL”, the “soluble on expression in E. coli” value is listed as “soluble”.

Turning to “GHMYETIRYEVKGQVAWLTLNRPDQLNAFTEQMNAEVTKALKQAGADPNVRCVVITGAGRAFCAGEDLSGVTEEMDHGDVLRSRYAPMMKALHHLEKPVVAAVNGAAAGAGMSLALACDFRLLSEKASFAPAFIHVGLVPDAGHLYYLPRLVGRAKALELAVLGEKVTAEEAAALGLATKVIPLSDWEEEVKQFAERLSAMPTKAIGLIKRLLRESEETTFDRYLEREAECQRIAGLTSDHREGVKAFFEKRKPLFQGN”, the “soluble on expression in E. coli” value is given as “soluble”.

For “GKDAHVILRSNFTLSKNKILNWEDTKKPYTYLENNGYANNVQRGFVAMGLFKDQQDVEMSPTQFGTVRPGDIKYRDINGDGKITDDDKVPLFAYSGVPQLMYGIGAEFRYKSWTLNVLFKGTGRNKFLYGGSDGRNFDGYMPFNQKDKGNIMTIAYNPENRWISAEYSGNQATENPNARFPRLYYGKNENNTKPSTFWMGDARYLRLQELSLAYNLKVPALQRILGINSMNIQLMCENLAVWDSVNIFDPEQATSCGQAYPLPARYSLQLYLNF”, the “soluble on expression in E. coli” value was “not soluble”.

Consider “GKPIRSPGVLLDIDSRRTAEAERDRLNELLQIFTAAVPGVVYAKDLEGRMLVANRGTAELVGKPPEFFIGKTDLEFLDDEQQARVLMETDQRIMQSNVSEQIEEKVNLADGSAAIWLSTKAPLLDRN”, for which the “soluble on expression in E. coli” value was “not soluble”.

For the sequence “GKSASMAVEEIASRKDISLRDMQISAILKMLFLNKDLNNNDNITTITDDIFNQQEIIWKVLILDIKSTATISSVLRVNDLLKAGITVHSLIKQDRSPLPDVPAIYFVSPTKENIDIIVNDLKSDKYSEFYINFTSSLPRNLLEDLAQQVSITGKSDKIKQVYDQYLDFIVTEPELFSLEISNAYLTLNDPKTTEEEITGLCANIADGLFNTVLTINSIPIIRAAKGGPAEIIAEKLGTKLRDFVINTNSSSTSTLQGNDSLERGVLIILDRNIDFASMFSHSWIYQCMVFDIFKLSRNTVTIPLESKENGTDNTTAKPLATKKYDIEPNDFFWMENSHLPFPEAAENVEAALNTYKEEAAEITRKTGVTNISDLDPNSNNDTVQIQEVVKKLPELTAKKNTIDTHMNIFAALLSQLESKSLDTFFEVEQDPGSTKTRSRFLDILKDGKTNNLEDKLRSFIVLYLTSTTGLPKDFVQNVENYFKENDYDINALKYVYKLREFMQLSNMSLQNKSLEDGSDSAFKPSNLTLSGIYGLTEGKLQGGVGSLISGIKKLLPEKKTIPITNVVDAIMDPLNSSQKNLETTDSYLYIDPKITRGSHTRKPKRQSYNKSLVFVVGGGNYLEYQNLQEWAHSQLHNPKKVMYGSTAITTPAEFLNEISRLGASNSSNNDA”, the “soluble on expression in E. coli” value is “soluble”.

For the sequence “GLDTGALDQQQNNNGRESIRTVNVSVNNAVTKIVSNMSPAVVGVVNIQKSDIWGESGEAGSGSGVIYKKNDHSAYVVTNHHVIEGASQIEISLKDGSRVSADLVGSDQLMDLAVLRVKSDKIKAVADFGNSDKVKSGEPVIAIGNPLGLEFAGSVTQGVISGTERAIPVDSNGDGQPDWNAEVLQTDAAINPGNSGGALLNMDGKVIGINSMKIAESAVEGIGLSIPSKLVIPVIEDLERYGKVKRPFLGIEMKSLSDIASYHWDETLKLPKNVTNGAVVMGVDAFSPAGKAGLKELDVITEFDGYKVNDIVDLRKRLYQKKVGDRVKVKFYRGGKEKSVDIKLSSA”, the “soluble on expression in E. coli” value is “not soluble”.

On to “GLEAVRKRPGMYIGSTSERGLHHLVWEIVDNSIDEALAGYANQIEVVIEKDNWIKVTDNGRGIPVDIQEKMGRPAVEVILTSSVVNALSQDLEVYVHRNETIYHQAYKKGVPQFDLKEVGTTDKTGTVIRFKADGEIFTETTVYNYETLQQRIRELAFLNKGIQITLRDERDEENVREDSYHYE”, for which the “soluble on expression in E. coli” value is reported as “soluble”.

As to “GLGNVDETLEIKQLLNIYRDLQLGHFCAFYQPQKHIDSGGVVAFEALARRVIGKGLYEMPDRFFPILEKYHLIPTLTEVMVRDILTFLMTEDAVLQDITIGVNIPGKMLTDGSFYRLLLSVAEEKQAQHALHRLSVEITEHDLIADFDAAKHEIYKLKSLGIRCALDDFGTGYSGYEYLCEIPFDVVKIDGRYIQSLGKAESSTVILQSMISSIKSLSMQVIAEWVDSDQQYQILQEMGCDLVQGYLVSPA”, the “soluble on expression in E. coli” value is listed as “not soluble”.

These data come from the DeepSol protein solubility set.
